Ends that are not written are not given here.
Biological target: T1, caspase-1 (Homo sapiens, UniProt P29466)
T1 sequence (P29466 120-297 limits assumed): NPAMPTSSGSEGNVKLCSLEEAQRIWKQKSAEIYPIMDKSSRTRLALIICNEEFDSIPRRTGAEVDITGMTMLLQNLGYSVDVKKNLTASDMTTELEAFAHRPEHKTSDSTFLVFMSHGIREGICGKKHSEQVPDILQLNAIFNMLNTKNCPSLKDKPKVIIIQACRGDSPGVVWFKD
T1 sequence (P29466 317-404 limits assumed): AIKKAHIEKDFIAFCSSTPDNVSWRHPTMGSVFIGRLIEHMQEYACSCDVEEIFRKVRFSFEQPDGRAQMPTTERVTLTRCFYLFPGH
Test: Caspase-1 treatment followed by HPLC analysis
Assay type: biochemical
Conditions: treated with caspase-1, HPLC analysis, FIG. 2
Procedure: Compound E1 obtained in Example 1, Compound E7 obtained in Example 7, and finasteride were prepared. Then, these compounds were treated with caspase-1, and analyzed with high performance liquid chromatography (HPLC). The results are illustrated in FIGS. 2 and 3.

Compound E7: finasteride linked via caspase-1 cleavage site (YVAD) and linkers to CTP+cysteine peptide (SEQ ID NO: 6) (YGRRARRRRRRC; also: finasteride linked via caspase-1 cleavage site (YVAD) and linkers, attachment site not given here)
cleavage of the compound on treatment with caspase-1 (HPLC): cleaved into two moieties, that is, finasteride and the protein transduction domain

From patent US11890364B2, “Composition for prevention or treatment of hair loss” (GOOD T CELLS, INC., priority 2017, dated 2024)
